Data on 21 compounds can be found in patent publication US20080207668A1, “PHARMACEUTICAL COMPOSITIONS OF HYD[…] PREVENTION OF OVERDOSE OR ABUSE” (New River Pharmaceuticals Inc., priority 2006, published 2008).

Where a name gives a salt, the structure may show the parent alone. Residues, ends and D or L forms follow the SMILES beside them. *: point of attachment. X5 = CC(=O)Oc1ccc2c3c1O[C@H]1C(O*)=CC[C@H]4[C@@H](C2)N(C)CC[C@]314; X2 = CN1CC[C@]23c4c5ccc(O)c4O[C@H]2C(O*)=CC[C@H]3[C@H]1C5

A short description of data set [1]: Intranasal bioavailability of hydromorphone conjugates (plasma hydromorphone after intranasal dosing). The note with it: rat, relative to hydromorphone control. It is filed as in vivo, male Sprague-Dawley rats. As for the experimental part: Oral, and intranasal bioavailability studies of hydromorphone and hydromorphone conjugates were conducted in male Sprague-Dawley rats. Doses of hydromorphone hydrochloride and hydromorphone conjugates containing equivalent amounts of hydromorphone were administered in deionized water. Oral administration was in 0.5 ml by gavage needle. Intranasal doses were administered by placing 20 microliters into the nasal flares of rats anesthetized with isoflurane. Plasma was collected by retroorbital sinus puncture under isoflurane anesthesia. hydromorphone were determined by LC/MS/MS.
Male Sprague-Dawley rats were provided water ad libitum and doses were administered by placing 0.02 ml of water containing hydromorphone conjugates or hydromorphone […] into the nasal flares. All doses contained equivalent amounts of hydromorphone base. Plasma hydromorphone concentrations were measured by ELISA (hydromorphone, 102919, Neogen, Corporation, Lexington, Ky.) and/or LC/MS. The assay is specific for hydromorphone. These examples illustrate that hydromorphone conjugates decrease the peak level (Cmax) and total absorption (AUC) of hydromorphone as compared to those produced by equimolar (hydromorphone base) doses of hydromorphone HCl when given by the intranasal route of administration.
The following Tables include Hydromorphone amino acid and peptide HCl salt conjugates that were synthesized and tested. Both oral and intranasal bioavailabilities were measured. The bold values are the “corrected values”, that were calculated based on the bioavailability of the control (HM).

Data set [2] in a line: Oral bioavailability of hydromorphone conjugates (plasma hydromorphone after oral gavage). Particulars: rat, relative to hydromorphone control.

In the case of `CN1CC[C@]23c4c5ccc(O)c4O[C@H]2C(OC(=O)[C@H](Cc2ccccc2)NC(=O)[C@H](Cc2ccccc2)NC(=O)[C@H](Cc2ccccc2)NC(=O)[C@H](CCC(=O)O)NC(=O)[C@@H](N)CCC(=O)O)=CC[C@H]3[C@H]1C5` [EEFFF-HM, Glu2-Phe3-Hydromorphone.Dihydrochloride] (H-EEFFF-X2), in data set [1], the “IN AUC % (corrected value based on bioavailability of control HM)” value (“IN AUC %” for short) came out at 52% and the “IN Cmax % (corrected value based on control HM)” value (“IN Cmax %” for short) was found to be 57%. Further, in data set [2], the “Oral AUC % (corrected value based on bioavailability of control HM)” value (“Oral AUC %” for short) is listed as 79% and the “Oral Cmax % (corrected value based on control HM)” value (shortened to “Oral Cmax %”) turned out to be 78%.
On the same counts, the results for `CC[C@H](C)[C@H](NC(=O)[C@H](CCC(=O)O)NC(=O)[C@@H](N)CCC(=O)O)C(=O)OC1=CC[C@H]2[C@H]3Cc4ccc(O)c5c4[C@@]2(CCN3C)[C@H]1O5` [EEI-HM] are 59%, 88%, 56% and 73%.
Turning to `CC(C)C[C@H](NC(=O)[C@H](CCC(=O)O)NC(=O)[C@@H](N)CCC(=O)O)C(=O)OC1=CC[C@H]2[C@H]3Cc4ccc(O)c5c4[C@@]2(CCN3C)[C@H]1O5` [EEL-HM], in data set [1], the “IN AUC %” value amounted to 84% and the “IN Cmax %” value came to 98%. In data set [2], the “Oral AUC %” value came out at 27% and the “Oral Cmax %” value is listed as 49%.
On the same counts, the results for `CC(C)[C@H](NC(=O)[C@H](CCC(=O)O)NC(=O)[C@@H](N)CCC(=O)O)C(=O)OC1=CC[C@H]2[C@H]3Cc4ccc(O)c5c4[C@@]2(CCN3C)[C@H]1O5` [EEV-HM] are 31%, 70%, 21% and 50%.
`CC[C@H](C)[C@H](NC(=O)[C@H](Cc1ccccc1)NC(=O)[C@@H](N)Cc1ccccc1)C(=O)OC1=CC[C@H]2[C@H]3Cc4ccc(O)c5c4[C@@]2(CCN3C)[C@H]1O5` [FFI-HM]: in data set [1], the “IN AUC %” value is recorded as 79% and the “IN Cmax %” value is 92%. Besides, in data set [2], the “Oral AUC %” value came out at 18% and the “Oral Cmax %” value worked out at 47%.
On to `CC(C)C[C@H](NC(=O)[C@H](Cc1ccccc1)NC(=O)[C@@H](N)Cc1ccccc1)C(=O)OC1=CC[C@H]2[C@H]3Cc4ccc(O)c5c4[C@@]2(CCN3C)[C@H]1O5` [FFL-HM], for which, in data set [1], the “IN AUC %” value is 92% and the “IN Cmax %” value amounted to 96%. For the same compound, in data set [2], the “Oral AUC %” value is reported as 11% and the “Oral Cmax %” value stood at 24%.
On to `CC(C)[C@H](NC(=O)[C@H](Cc1ccccc1)NC(=O)[C@@H](N)Cc1ccccc1)C(=O)OC1=CC[C@H]2[C@H]3Cc4ccc(O)c5c4[C@@]2(CCN3C)[C@H]1O5` [FFV-HM], for which, in data set [1], the “IN AUC %” value came out at 98% and the “IN Cmax %” value was 103%. For the same compound, in data set [2], the “Oral AUC %” value stood at 8% and the “Oral Cmax %” value was determined as 36%.
With `CC[C@H](C)[C@H](NC(=O)CNC(=O)CN)C(=O)OC1=CC[C@H]2[C@H]3Cc4ccc(O)c5c4[C@@]2(CCN3C)[C@H]1O5` [GGI-HM], in data set [1], the “IN AUC %” value amounted to 24% and the “IN Cmax %” value was 66%. Moreover, in data set [2], the “Oral AUC %” value is on record as 17% and the “Oral Cmax %” value is reported as 32%.
Take `CC(C)C[C@H](NC(=O)CNC(=O)CN)C(=O)OC1=CC[C@H]2[C@H]3Cc4ccc(O)c5c4[C@@]2(CCN3C)[C@H]1O5` [GGL-HM]: in data set [1], the “IN AUC %” value was found to be 52% and the “IN Cmax %” value was determined as 85%. Moreover, in data set [2], the “Oral AUC %” value came out at 22% and the “Oral Cmax %” value came to 43%.
`CC(C)[C@H](NC(=O)CNC(=O)CN)C(=O)OC1=CC[C@H]2[C@H]3Cc4ccc(O)c5c4[C@@]2(CCN3C)[C@H]1O5` [GGV-HM]: in data set [1], the “IN AUC %” value is listed as 51% and the “IN Cmax %” value stood at 73%. Moreover, in data set [2], the “Oral AUC %” value is 53% and the “Oral Cmax %” value turned out to be 63%.
Regarding `CC[C@H](C)[C@H](NC(=O)[C@H](CCCCN)NC(=O)[C@@H](N)CCCCN)C(=O)OC1=CC[C@H]2[C@H]3Cc4ccc(O)c5c4[C@@]2(CCN3C)[C@H]1O5` [KKI-HM], in data set [1], the “IN AUC %” value is given as 68% and the “IN Cmax %” value was found to be 85%. For the same compound, in data set [2], the “Oral AUC %” value is 24% and the “Oral Cmax %” value turned out to be 56%.
In the case of `CC(C)C[C@H](NC(=O)[C@H](CCCCN)NC(=O)[C@@H](N)CCCCN)C(=O)OC1=CC[C@H]2[C@H]3Cc4ccc(O)c5c4[C@@]2(CCN3C)[C@H]1O5` [KKL-HM], in data set [1], the “IN AUC %” value is reported as 87% and the “IN Cmax %” value is 96%. Besides, in data set [2], the “Oral AUC %” value worked out at 24% and the “Oral Cmax %” value worked out at 50%.
The matching figures for `CC(C)[C@H](NC(=O)[C@H](CCCCN)NC(=O)[C@@H](N)CCCCN)C(=O)OC1=CC[C@H]2[C@H]3Cc4ccc(O)c5c4[C@@]2(CCN3C)[C@H]1O5` [KKV-HM]: 75%, 89%, 43% and 60%.
As for `CC[C@H](C)[C@H](NC(=O)[C@@H]1CCCN1C(=O)[C@@H]1CCCN1)C(=O)OC1=CC[C@H]2[C@H]3Cc4ccc(O)c5c4[C@@]2(CCN3C)[C@H]1O5` [PPI-HM], in data set [1], the “IN AUC %” value is 77% and the “IN Cmax %” value was 95%. In addition, in data set [2], the “Oral AUC %” value is given as 21% and the “Oral Cmax %” value came to 60%.
For the compound `CC(C)C[C@H](NC(=O)[C@@H]1CCCN1C(=O)[C@@H]1CCCN1)C(=O)OC1=CC[C@H]2[C@H]3Cc4ccc(O)c5c4[C@@]2(CCN3C)[C@H]1O5` [PPL-HM], in data set [1], the “IN AUC %” value was found to be 53% and the “IN Cmax %” value came to 70%. In data set [2], the “Oral AUC %” value came out at 22% and the “Oral Cmax %” value is recorded as 45%.
With `CC(C)[C@H](NC(=O)[C@@H]1CCCN1C(=O)[C@@H]1CCCN1)C(=O)OC1=CC[C@H]2[C@H]3Cc4ccc(O)c5c4[C@@]2(CCN3C)[C@H]1O5` [PPV-HM], in data set [1], the “IN AUC %” value is recorded as 71% and the “IN Cmax %” value worked out at 101%. In addition, in data set [2], the “Oral AUC %” value was determined as 24% and the “Oral Cmax %” value turned out to be 55%.
For `CC[C@H](C)[C@H](NC(=O)[C@H](Cc1ccccc1)NC(=O)[C@H](Cc1ccccc1)NC(=O)[C@H](Cc1ccc(O)cc1)NC(=O)[C@@H](N)Cc1ccc(O)cc1)C(=O)OC1=CC[C@H]2[C@H]3Cc4ccc(OC(C)=O)c5c4[C@@]2(CCN3C)[C@H]1O5` [YYFFI-HM-OAc] (H-YYFFI-X5), in data set [1], the “IN AUC %” value came out at 59% and the “IN Cmax %” value came out at 72%. Also, in data set [2], the “Oral AUC %” value amounted to 29% and the “Oral Cmax %” value was 40%.
With `CC[C@H](C)[C@H](NC(=O)[C@H](Cc1ccccc1)NC(=O)[C@H](Cc1ccccc1)NC(=O)[C@H](Cc1ccc(O)cc1)NC(=O)[C@@H](N)Cc1ccc(O)cc1)C(=O)OC1=CC[C@H]2[C@H]3Cc4ccc(O)c5c4[C@@]2(CCN3C)[C@H]1O5` [YYFFI-HM] (H-YYFFI-X2), in data set [1], the “IN AUC %” value turned out to be 4% and the “IN Cmax %” value was 7%. Besides, in data set [2], the “Oral AUC %” value is 40% and the “Oral Cmax %” value is listed as 52%.
Consider `CC[C@H](C)[C@H](NC(=O)[C@H](Cc1ccc(O)cc1)NC(=O)[C@@H](N)Cc1ccc(O)cc1)C(=O)OC1=CC[C@H]2[C@H]3Cc4ccc(O)c5c4[C@@]2(CCN3C)[C@H]1O5` [YYI-HM], for which, in data set [1], the “IN AUC %” value was found to be 88% and the “IN Cmax %” value was found to be 86%. In addition, in data set [2], the “Oral AUC %” value worked out at 32% and the “Oral Cmax %” value was found to be 66%.
`CC(C)C[C@H](NC(=O)[C@H](Cc1ccc(O)cc1)NC(=O)[C@@H](N)Cc1ccc(O)cc1)C(=O)OC1=CC[C@H]2[C@H]3Cc4ccc(O)c5c4[C@@]2(CCN3C)[C@H]1O5` [YYL-HM]: in data set [1], the “IN AUC %” value is on record as 74% and the “IN Cmax %” value is on record as 75%. In data set [2], the “Oral AUC %” value is 12% and the “Oral Cmax %” value was 30%.
Consider `CC(C)[C@H](NC(=O)[C@H](Cc1ccc(O)cc1)NC(=O)[C@@H](N)Cc1ccc(O)cc1)C(=O)OC1=CC[C@H]2[C@H]3Cc4ccc(O)c5c4[C@@]2(CCN3C)[C@H]1O5` [YYV-HM], for which, in data set [1], the “IN AUC %” value was found to be 73% and the “IN Cmax %” value is listed as 73%. In data set [2], the “Oral AUC %” value is 30% and the “Oral Cmax %” value was determined as 53%.
